The source of these data is patent US20100040631A1 (NEW YORK BLOOD CENTER, published 2010).

This experiment has as its target T1, N46 (HIV-1).
T1 construct: Synthetic peptide from the gp41 N-terminal heptad repeat; Used at 8 uM in CD and 0.5 uM in the ELISA; also called NHR-peptide N46
Briefly: competition ELISA: inhibition of six-helix bundle formation between N46 and C34-biotin (competitor), detected with mAb NC-1. A general note: An ELISA detects its analyte on a solid surface through an enzyme-linked reagent.

Broadly, the EC50 is the midpoint of the concentration-response curve. The molecule WQEWEQKITALLEQAQIQQEKNEYELQKLDKWASLWEWF (39-mer hybrid polypeptide) [T-1249] returned an EC50 of 800 nM.
